The results in this text go back to patent US20260176319A1 (KALLYOPE, published 2026).

The labels stand for the following.
B1: Peptide 74 (peptide)
peptide: {C18 diacid}-[d(γGlu)][AEEA][AEEA][Aib]NHWAV[dA]HL[Nle]-NH2
SMILES: CCCC[C@H](NC(=O)[C@H](CC(C)C)NC(=O)[C@H](Cc1c[nH]cn1)NC(=O)[C@@H](C)NC(=O)[C@@H](NC(=O)[C@H](C)NC(=O)[C@H](Cc1c[nH]c2ccccc12)NC(=O)[C@H](Cc1c[nH]cn1)NC(=O)[C@H](CC(N)=O)NC(=O)C(C)(C)NC(=O)COCCOCCNC(=O)COCCOCCNC(=O)CC[C@@H](NC(=O)CCCCCCCCCCCCCCCCC(=O)O)C(=O)O)C(C)C)C(N)=O
B2: Peptide 78 (peptide)
peptide: {C18 diacid}-[d(γGlu)][AEEA][AEEA][AEEA][AEEA]GNH[Trp(7-Me)]AV[dA]HL-NH2
SMILES: Cc1cccc2c(C[C@H](NC(=O)[C@H](Cc3c[nH]cn3)NC(=O)[C@H](CC(N)=O)NC(=O)CNC(=O)COCCOCCNC(=O)COCCOCCNC(=O)COCCOCCNC(=O)COCCOCCNC(=O)CC[C@@H](NC(=O)CCCCCCCCCCCCCCCCC(=O)O)C(=O)O)C(=O)N[C@@H](C)C(=O)N[C@H](C(=O)N[C@H](C)C(=O)N[C@@H](Cc3c[nH]cn3)C(=O)N[C@@H](CC(C)C)C(N)=O)C(C)C)c[nH]c12
B3: Peptide 85 (peptide)
peptide: {C18 diacid}-[γGlu][AEEA][AEEA]GNH[Trp(7-Me)]AV[dA]HL[Nle]-NH2
SMILES: CCCC[C@H](NC(=O)[C@H](CC(C)C)NC(=O)[C@H](Cc1c[nH]cn1)NC(=O)[C@@H](C)NC(=O)[C@@H](NC(=O)[C@H](C)NC(=O)[C@H](Cc1c[nH]c2c(C)cccc12)NC(=O)[C@H](Cc1c[nH]cn1)NC(=O)[C@H](CC(N)=O)NC(=O)CNC(=O)COCCOCCNC(=O)COCCOCCNC(=O)CC[C@H](NC(=O)CCCCCCCCCCCCCCCCC(=O)O)C(=O)O)C(C)C)C(N)=O
B4: Peptide 80 (peptide)
peptide: {C18 diacid}-[d(γGlu)][Ava]GNHWAV[dA]HL[Nle]-NH2
SMILES: CCCC[C@H](NC(=O)[C@H](CC(C)C)NC(=O)[C@H](Cc1c[nH]cn1)NC(=O)[C@@H](C)NC(=O)[C@@H](NC(=O)[C@H](C)NC(=O)[C@H](Cc1c[nH]c2ccccc12)NC(=O)[C@H](Cc1c[nH]cn1)NC(=O)[C@H](CC(N)=O)NC(=O)CNC(=O)CCCCNC(=O)CC[C@@H](NC(=O)CCCCCCCCCCCCCCCCC(=O)O)C(=O)O)C(C)C)C(N)=O
B5: Peptide 87 (peptide)
peptide: Palmitoyl-[γGlu][AEEA][AEEA]GNH[Trp(7-F)]AV[dA]HL[Nle]-NH2
SMILES: CCCCCCCCCCCCCCCC(=O)N[C@@H](CCC(=O)NCCOCCOCC(=O)NCCOCCOCC(=O)NCC(=O)N[C@@H](CC(N)=O)C(=O)N[C@@H](Cc1c[nH]cn1)C(=O)N[C@@H](Cc1c[nH]c2c(F)cccc12)C(=O)N[C@@H](C)C(=O)N[C@H](C(=O)N[C@H](C)C(=O)N[C@@H](Cc1c[nH]cn1)C(=O)N[C@@H](CC(C)C)C(=O)N[C@@H](CCCC)C(N)=O)C(C)C)C(=O)O
B6: Peptide 84 (peptide)
peptide: {C18 diacid}-[d(γGlu)][AEEA][AEEA]GNH[Trp(6-Me)]AV[dA]HL[Nle][Sar]-NH2
SMILES: CCCC[C@H](NC(=O)[C@H](CC(C)C)NC(=O)[C@H](Cc1c[nH]cn1)NC(=O)[C@@H](C)NC(=O)[C@@H](NC(=O)[C@H](C)NC(=O)[C@H](Cc1c[nH]c2cc(C)ccc12)NC(=O)[C@H](Cc1c[nH]cn1)NC(=O)[C@H](CC(N)=O)NC(=O)CNC(=O)COCCOCCNC(=O)COCCOCCNC(=O)CC[C@@H](NC(=O)CCCCCCCCCCCCCCCCC(=O)O)C(=O)O)C(C)C)C(=O)N(C)CC(N)=O
B7: Peptide 83 (peptide)
peptide: {C18 diacid}-[d(γGlu)][AEEA][AEEA][AEEA][AEEA]GN[3Pal]WAV[dA]HL[Nle]-NH2
SMILES: CCCC[C@H](NC(=O)[C@H](CC(C)C)NC(=O)[C@H](Cc1c[nH]cn1)NC(=O)[C@@H](C)NC(=O)[C@@H](NC(=O)[C@H](C)NC(=O)[C@H](Cc1c[nH]c2ccccc12)NC(=O)[C@H](Cc1cccnc1)NC(=O)[C@H](CC(N)=O)NC(=O)CNC(=O)COCCOCCNC(=O)COCCOCCNC(=O)COCCOCCNC(=O)COCCOCCNC(=O)CC[C@@H](NC(=O)CCCCCCCCCCCCCCCCC(=O)O)C(=O)O)C(C)C)C(N)=O
B8: Peptide 82 (peptide)
peptide: {C18 diacid}-[d(γGlu)][AEEA][AEEA]GNHWAV[dA]HL[Nle][Aib]-NH2
SMILES: CCCC[C@H](NC(=O)[C@H](CC(C)C)NC(=O)[C@H](Cc1c[nH]cn1)NC(=O)[C@@H](C)NC(=O)[C@@H](NC(=O)[C@H](C)NC(=O)[C@H](Cc1c[nH]c2ccccc12)NC(=O)[C@H](Cc1c[nH]cn1)NC(=O)[C@H](CC(N)=O)NC(=O)CNC(=O)COCCOCCNC(=O)COCCOCCNC(=O)CC[C@@H](NC(=O)CCCCCCCCCCCCCCCCC(=O)O)C(=O)O)C(C)C)C(=O)NC(C)(C)C(N)=O
B9: Peptide 77 (peptide)
peptide: {C18 diacid}-[d(γGlu)][AEEA][AEEA]GK(Ac)HWAV[dA]HL[Nle][Sar]-NH2
SMILES: CCCC[C@H](NC(=O)[C@H](CC(C)C)NC(=O)[C@H](Cc1c[nH]cn1)NC(=O)[C@@H](C)NC(=O)[C@@H](NC(=O)[C@H](C)NC(=O)[C@H](Cc1c[nH]c2ccccc12)NC(=O)[C@H](Cc1c[nH]cn1)NC(=O)[C@H](CCCCNC(C)=O)NC(=O)CNC(=O)COCCOCCNC(=O)COCCOCCNC(=O)CC[C@@H](NC(=O)CCCCCCCCCCCCCCCCC(=O)O)C(=O)O)C(C)C)C(=O)N(C)CC(N)=O
B10: Peptide 75 (peptide)
peptide: Palmitoyl-[d(γGlu)][AEEA][AEEA]GNHWAV[dA]HL[Nle][Aib]-NH2
SMILES: CCCCCCCCCCCCCCCC(=O)N[C@H](CCC(=O)NCCOCCOCC(=O)NCCOCCOCC(=O)NCC(=O)N[C@@H](CC(N)=O)C(=O)N[C@@H](Cc1c[nH]cn1)C(=O)N[C@@H](Cc1c[nH]c2ccccc12)C(=O)N[C@@H](C)C(=O)N[C@H](C(=O)N[C@H](C)C(=O)N[C@@H](Cc1c[nH]cn1)C(=O)N[C@@H](CC(C)C)C(=O)N[C@@H](CCCC)C(=O)NC(C)(C)C(N)=O)C(C)C)C(=O)O
B11: Peptide 81 (peptide)
peptide: {C18 diacid}-[d(γGlu)][AEEA][AEEA]GNH[Trp(7-Me)]AV[dA]HL[Nle][Sar]-NH2
SMILES: CCCC[C@H](NC(=O)[C@H](CC(C)C)NC(=O)[C@H](Cc1c[nH]cn1)NC(=O)[C@@H](C)NC(=O)[C@@H](NC(=O)[C@H](C)NC(=O)[C@H](Cc1c[nH]c2c(C)cccc12)NC(=O)[C@H](Cc1c[nH]cn1)NC(=O)[C@H](CC(N)=O)NC(=O)CNC(=O)COCCOCCNC(=O)COCCOCCNC(=O)CC[C@@H](NC(=O)CCCCCCCCCCCCCCCCC(=O)O)C(=O)O)C(C)C)C(=O)N(C)CC(N)=O
B12: Peptide 73 (peptide)
peptide: {C18 diacid}-[d(γGlu)][AEEA][AEEA]GN[3Pal][Trp(7-Me)]AV[dA]HL[Nle][Sar]-NH2
SMILES: CCCC[C@H](NC(=O)[C@H](CC(C)C)NC(=O)[C@H](Cc1c[nH]cn1)NC(=O)[C@@H](C)NC(=O)[C@@H](NC(=O)[C@H](C)NC(=O)[C@H](Cc1c[nH]c2c(C)cccc12)NC(=O)[C@H](Cc1cccnc1)NC(=O)[C@H](CC(N)=O)NC(=O)CNC(=O)COCCOCCNC(=O)COCCOCCNC(=O)CC[C@@H](NC(=O)CCCCCCCCCCCCCCCCC(=O)O)C(=O)O)C(C)C)C(=O)N(C)CC(N)=O
B13: Peptide 79 (peptide)
peptide: {C18 diacid}-[d(γGlu)][AEEA][AEEA]GNH[Trp(6-Me)]AV[dA]HL[Nle]-NH2
SMILES: CCCC[C@H](NC(=O)[C@H](CC(C)C)NC(=O)[C@H](Cc1c[nH]cn1)NC(=O)[C@@H](C)NC(=O)[C@@H](NC(=O)[C@H](C)NC(=O)[C@H](Cc1c[nH]c2cc(C)ccc12)NC(=O)[C@H](Cc1c[nH]cn1)NC(=O)[C@H](CC(N)=O)NC(=O)CNC(=O)COCCOCCNC(=O)COCCOCCNC(=O)CC[C@@H](NC(=O)CCCCCCCCCCCCCCCCC(=O)O)C(=O)O)C(C)C)C(N)=O
B14: Peptide 86 (peptide)
peptide: {C18 diacid}-[γGlu][AEEA][AEEA]GNH[Trp(7-F)]AV[dA]HL[Nle]-NH2
SMILES: CCCC[C@H](NC(=O)[C@H](CC(C)C)NC(=O)[C@H](Cc1c[nH]cn1)NC(=O)[C@@H](C)NC(=O)[C@@H](NC(=O)[C@H](C)NC(=O)[C@H](Cc1c[nH]c2c(F)cccc12)NC(=O)[C@H](Cc1c[nH]cn1)NC(=O)[C@H](CC(N)=O)NC(=O)CNC(=O)COCCOCCNC(=O)COCCOCCNC(=O)CC[C@H](NC(=O)CCCCCCCCCCCCCCCCC(=O)O)C(=O)O)C(C)C)C(N)=O
B15: Peptide 76 (peptide)
peptide: {C18 diacid}-[d(γGlu)][AEEA][AEEA]GNH[Trp(7-Me)]AV[dA]HL[Nle][Aib]-NH2
SMILES: CCCC[C@H](NC(=O)[C@H](CC(C)C)NC(=O)[C@H](Cc1c[nH]cn1)NC(=O)[C@@H](C)NC(=O)[C@@H](NC(=O)[C@H](C)NC(=O)[C@H](Cc1c[nH]c2c(C)cccc12)NC(=O)[C@H](Cc1c[nH]cn1)NC(=O)[C@H](CC(N)=O)NC(=O)CNC(=O)COCCOCCNC(=O)COCCOCCNC(=O)CC[C@@H](NC(=O)CCCCCCCCCCCCCCCCC(=O)O)C(=O)O)C(C)C)C(=O)NC(C)(C)C(N)=O

Starred links: 1 amine or outer side, 2 acyl side, 3 side chain; linkers in the order of their positions; H or OH if unused. Non-standard residues stand in square brackets, D forms with d. *: point of attachment. Trp(6-Me) = Cc1ccc2c(C[C@H](N)C(=O)O)c[nH]c2c1; Trp(7-F) = N[C@@H](Cc1c[nH]c2c(F)cccc12)C(=O)O; Trp(7-Me) = Cc1cccc2c(C[C@H](N)C(=O)O)c[nH]c12; d(γGlu) = O=C(O)[C@@H](CCC(=O)[*:2])N[*:1]; C18 diacid = O=C(O)CCCCCCCCCCCCCCCCC(=O)*; γGlu = O=C(O)[C@H](CCC(=O)[*:2])N[*:1]; Palmitoyl = CCCCCCCCCCCCCCCC(=O)*; 3Pal = N[C@@H](Cc1cccnc1)C(=O)O; Nle = CCCC[C@H](N)C(=O)O; AEEA = NCCOCCOCC(=O)O; Aib = CC(C)(N)C(=O)O; Ava = NCCCCC(=O)O; Sar = CNCC(=O)O

Sequence of human GRP receptor (P30550 whole entry): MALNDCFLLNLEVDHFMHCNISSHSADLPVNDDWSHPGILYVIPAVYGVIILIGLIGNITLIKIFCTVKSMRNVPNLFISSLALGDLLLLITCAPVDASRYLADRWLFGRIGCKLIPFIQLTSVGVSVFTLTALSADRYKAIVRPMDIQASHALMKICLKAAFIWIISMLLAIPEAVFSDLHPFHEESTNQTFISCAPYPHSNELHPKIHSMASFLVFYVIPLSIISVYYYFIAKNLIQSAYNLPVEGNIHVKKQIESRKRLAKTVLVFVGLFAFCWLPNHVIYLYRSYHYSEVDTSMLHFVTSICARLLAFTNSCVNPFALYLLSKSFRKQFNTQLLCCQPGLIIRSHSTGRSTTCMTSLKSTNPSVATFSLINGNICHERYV

This experiment has as its target human GRP receptor (human, UniProt P30550 1-384). Nature of the experiment: cell-based or functional assay.
For B1, the “hIP1 GRPR EC50” value was 25.5 nM. Take B2: the “hIP1 GRPR EC50” value worked out at 14 nM. Next, B3: 14.7 nM; B4: 5.11 nM.

Turning to B5, the “hIP1 GRPR EC50” value worked out at 1.73 nM. Next, B6: 2550 nM. The value for B7 was 109 nM; that for B8 was 1230 nM. As for B9, the “hIP1 GRPR EC50” value was found to be 184 nM. The value for GNHWAVXHLX (Gly-Asn-His-Trp-Ala-Val-D-Ala-His-Leu-Nle-NH2) [Peptide 6] was 26.8 nM; that for EXXGNHWAVGHLM (Octadecanedioyl-D-γGlu-OEG-OEG-Gly-Asn-His-Trp-Ala-Val-Gly-His-Leu-Met-NH2) [Peptide 5] was 7.5 nM; that for B10 was 18.2 nM. Next, B11: 505 nM.

In the case of B12, the “hIP1 GRPR EC50” value was 1190 nM. The value for B13 was 529 nM. Next, B14: 17.6 nM. Next, B15: 358 nM.
